Measurements reported in patent US20260347439 (published 2026).
Where two headings read alike, the source gives them in different places.

B1: MEDI8897 (antibody, V domains shown)
VH: QVQLVQSGAEVKKPGSSVMVSCQASGGLLEDYIINWVRQAPGQGPEWMGGIIPVLGTVHYGPKFQGRVTITADESTDTAYMELSSLRSEDTAMYYCATETALVVSETYLPHYFDNWGQGTLVTVSS
VL: DIQMTQSPSSLSAAVGDRVTITCQASQDIVNYLNWYQQKPGKAPKLLIYVASNLETGVPSRFSGSGSGTDFSLTISSLQPEDVATYYCQQYDNLPLTFGGGTKVEIKR
B2: F6-113 (antibody, V domains shown)
VH: QVQLQQWGAGLLKPSETLSLTCAVDGASVSDDDWTWIRQSPGKGLEWIGQIDQTGSFNYNPSLRSRVTISPDTSKNHFSLSLTSVTAADTALYYCARGGLVVTDVGQGWDAFDVWGQGTMVTVSS
VL: DIQLTQSPSSVSASVGDRITITCRASQDIDNWLAWYQQKPGEAPKLLIYAASTLQSGVPSRFSGSGAGTEFTLTITSLQPEDFAGYFCQQGDSFPLTFGGGTKVDIK
B3: F6-10 (antibody, V domains shown)
VH: DALLLQSGGGLMQPGGSLRLSCAASEFTFNIHAMTWVRQSPGKGLEWVSGISSTGEGTYYTDSVKGRFTISRDNSKSTLYLQMNSLRAEDTATYFCARYSFRYGELRGTFDIWGQGVLVSVSS
VL: DIQMTQTPSTLSASVGDRVIITCRASQSVGDSVAWFQQKPGRAPKLLIYDTTNLERGVPSRFSGSFSGTAFTLTITRLQPDDFATYYCQQYDESWTFGQGTKVEVK
B4: F6-125 (antibody, V domains shown)
VH: QLQLVQSGTEVKKPGASVKVSCKASGYTFSDNAINWVRQAPGQGLEWLGWITANNGNTNYAQKIQGRVTMTTDTSTSTVYMELRSLGSDDTAVYYCAREVVNYGLGSLHFDYWGQGTLVTVSS
VL: SYELTQPPSVSVSPGQTVSISCSGDKLGNDYASWYQQKPGQSPLLVIYEDAKRPSGIPERFSGSNSGNTATLTISGTQAMDDADYYCQAWDGTTVIFGGGTKLTVL
B5: F6-18 (antibody, V domains shown)
VH: EEQLVESGGGLVRPGGSLRLSCVASGFSVSDYGMHWVRQAPGRGLEYVSAIRSHGDGTYYVNSVKGRFIISRDNSKNTLYLQMGSLSAEDMAVYYCARDRVWAHDYDDTAWLDAFDLWGQGTTVIVSS
VL: DIQMTQSPSTLSASVGDKVTITCRASQSVGSLLAWYQQKPGKAPKLLIYDASNLQRGVPSRFSGSGSGTEFTLTISSLQPDDFATYYCQQYKSHSPPFGQGTKLEIK

Tests used:
RSV A2 pre-F [1] = biological target: T1, RSV A2 pre-F (Respiratory syncytial virus A2); assay: ELISA
RSV A2 pre-F [2] = biological target: T1, RSV A2 pre-F; assay: ELISA; remark: listed apart in the source
RSV A2 pre-F [3] = biological target: T1, RSV A2 pre-F; assay: BLI
RSV A2 pre-F [4] = biological target: T1, RSV A2 pre-F; assay: BLI; remark: listed apart in the source

Binder	EC50 (RSV A2 pre-F [1])	EC50 (RSV A2 pre-F [2])	Kd (RSV A2 pre-F [3])	Kd (RSV A2 pre-F [4])
B1	0.0146 µg/mL	0.0313 µg/mL	0.379 nM	0.122 nM
B2	–	0.0133 µg/mL	< 0.001 nM	–
B3	–	0.0307 µg/mL	0.994 nM	–
B4	–	0.0144 µg/mL	< 0.001 nM	–
B5	0.016 µg/mL	–	–	0.0805 nM
